Target: T7 DNAP (complex of T7 gp5 and Escherichia coli thioredoxin) (bacteriophage T7 | Escherichia coli) (UniProt P00581)
Sequence of UniProt P00581 (P00581 whole entry, chain 1 of 2): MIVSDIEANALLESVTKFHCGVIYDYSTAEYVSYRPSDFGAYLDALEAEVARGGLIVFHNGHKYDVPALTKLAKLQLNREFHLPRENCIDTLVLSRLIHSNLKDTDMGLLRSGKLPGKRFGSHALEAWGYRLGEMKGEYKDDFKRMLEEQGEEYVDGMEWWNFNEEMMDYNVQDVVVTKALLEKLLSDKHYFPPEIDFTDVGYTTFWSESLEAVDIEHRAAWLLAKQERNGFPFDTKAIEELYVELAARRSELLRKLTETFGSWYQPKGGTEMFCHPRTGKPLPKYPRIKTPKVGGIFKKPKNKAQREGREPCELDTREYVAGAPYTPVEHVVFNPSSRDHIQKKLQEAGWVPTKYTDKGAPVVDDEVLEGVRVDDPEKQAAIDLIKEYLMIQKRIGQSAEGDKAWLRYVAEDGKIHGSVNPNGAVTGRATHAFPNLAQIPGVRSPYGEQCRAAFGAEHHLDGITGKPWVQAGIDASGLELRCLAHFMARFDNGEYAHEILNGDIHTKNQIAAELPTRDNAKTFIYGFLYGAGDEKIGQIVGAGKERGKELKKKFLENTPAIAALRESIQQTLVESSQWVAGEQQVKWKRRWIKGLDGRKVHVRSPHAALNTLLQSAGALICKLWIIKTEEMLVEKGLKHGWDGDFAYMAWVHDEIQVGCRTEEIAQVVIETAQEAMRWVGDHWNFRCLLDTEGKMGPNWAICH
Sequence of UniProt P00581 (P0AA25 whole entry, chain 2 of 2, further chain): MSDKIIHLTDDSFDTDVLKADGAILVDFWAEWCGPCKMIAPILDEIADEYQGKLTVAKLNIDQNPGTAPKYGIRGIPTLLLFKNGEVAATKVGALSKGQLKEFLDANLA

C-tail mutant of T7 gp4A′ (T7 HelicaseΔC17) (enzyme)
Pol/Exo ratio (nucleotides incorporated per nucleotide excised) during leading strand synthesis on minicircle DNA, 150 μM dVTPs and 500 μM dTTP; 50–60% lower than with the WT T7 helicase: 5.7

Source: publication PMC7073461
